Measured values: patent publication US20150299307A1 (AbbVie / Abbott, published 2015)

Molecular target: T1, human VEGF-A residues 27-191 of Accession # AAV38412 (human, UniProt P15692 27-191)
T1 construct: range 27-191
Test: SPR (BIAcore T200), cited from Table 21
Description: Coupling running buffer was HBS-EP+ running buffer (10 mM HEPES, 150 mM sodium chloride, 3 mM EDTA 0.05% P-20, pH 7.4); assay running buffer was HBS-EP+ with 300 mM sodium chloride and 0.1 mg/mL BSA (Sigma A7906). […] For binding kinetics assay a series of cycles were performed, each cycle consisted of 1) mAb capture, 2) Ag or buffer injection, 3) dissociation phase and 4) regeneration. […] No capture of the antibody was made on the reference surface to serve for primary referencing and as a negative control. […] At the end of each cycle the surface was regenerated with 10 mM glycine, pH 1.5 at a flow rate of 60 μL/min in pulses of 60 and 10 sec. Binding data were fit to the 1:1 Langmuir model with mass transport term included using Biacore T200 Evaluation Software to determine the binding constants.

T1 sequence (P15692 other isoform, or with tags, fused parts or gaps limits assumed): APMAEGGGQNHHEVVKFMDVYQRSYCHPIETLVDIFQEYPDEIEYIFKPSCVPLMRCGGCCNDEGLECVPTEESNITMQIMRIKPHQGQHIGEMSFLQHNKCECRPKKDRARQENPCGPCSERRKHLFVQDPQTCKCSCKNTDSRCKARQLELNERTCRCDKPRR

B1: bevacizumab variant H97F (taken as IgG format) (antibody, name in Kabat numbering, V domains shown)
VH: EVQLVESGGGLVQPGGSLRLSCAASGYTFTNYGMNWVRQAPGKGLEWVGWINTYTGEPTYAADFKRRFTFSLDTSKSTAYLQMNSLRAEDTAVYYCAKYPFYYGSSHWYFDVWGQGTLVTVSS
VL: DIQMTQSPSSLSASVGDRVTITCSASQDISNYLNWYQQKPGKAPKVLIYFTSSLHSGVPSRFSGSGSGTDFTLTISSLQPEDFATYYCQQYSTVPWTFGQGTKVEIKR
notes: also called H97F mutation alone
fold improvement in off-rate over wild type: > 6 fold
